Data as given in publication PMC9464890, “Exosite binding modulates the specificity of the immunomodulatory enzyme ScpA, a C5a inactivating bacterial protease” (Computational and Structural Biotechnology Journal, 2022).
Positions count from the first letter of the chain named.

Legend:
ScpA_(S512A) = molecular target: T1, ScpA_(S512A) (Streptococcus pyogenes, UniProt P15926 31-1032, S512A); test: SPR; BIAcore X100, NTA sensor chip with about 20-25 RU of immobilised His-tagged C5a form (ligand), ScpA form flowed as ligate at 30 uL/min, 25 °C, 10 mM Hepes-KOH pH 7.4, 150 mM NaCl, 0.005% Tween 20, 50 uM EDTA; global fit, 1:1 Langmuir model with drifting baseline; triplicate; conditions: both partners purified
T1 construct: Plasmid pGEX ScpA(31-1032) was the template; also called C5a peptidase from Streptococcus pyogenes, active site serine to alanine mutant; source: details in Supplemental Information SI1 and SI2
T1 sequence (looked up): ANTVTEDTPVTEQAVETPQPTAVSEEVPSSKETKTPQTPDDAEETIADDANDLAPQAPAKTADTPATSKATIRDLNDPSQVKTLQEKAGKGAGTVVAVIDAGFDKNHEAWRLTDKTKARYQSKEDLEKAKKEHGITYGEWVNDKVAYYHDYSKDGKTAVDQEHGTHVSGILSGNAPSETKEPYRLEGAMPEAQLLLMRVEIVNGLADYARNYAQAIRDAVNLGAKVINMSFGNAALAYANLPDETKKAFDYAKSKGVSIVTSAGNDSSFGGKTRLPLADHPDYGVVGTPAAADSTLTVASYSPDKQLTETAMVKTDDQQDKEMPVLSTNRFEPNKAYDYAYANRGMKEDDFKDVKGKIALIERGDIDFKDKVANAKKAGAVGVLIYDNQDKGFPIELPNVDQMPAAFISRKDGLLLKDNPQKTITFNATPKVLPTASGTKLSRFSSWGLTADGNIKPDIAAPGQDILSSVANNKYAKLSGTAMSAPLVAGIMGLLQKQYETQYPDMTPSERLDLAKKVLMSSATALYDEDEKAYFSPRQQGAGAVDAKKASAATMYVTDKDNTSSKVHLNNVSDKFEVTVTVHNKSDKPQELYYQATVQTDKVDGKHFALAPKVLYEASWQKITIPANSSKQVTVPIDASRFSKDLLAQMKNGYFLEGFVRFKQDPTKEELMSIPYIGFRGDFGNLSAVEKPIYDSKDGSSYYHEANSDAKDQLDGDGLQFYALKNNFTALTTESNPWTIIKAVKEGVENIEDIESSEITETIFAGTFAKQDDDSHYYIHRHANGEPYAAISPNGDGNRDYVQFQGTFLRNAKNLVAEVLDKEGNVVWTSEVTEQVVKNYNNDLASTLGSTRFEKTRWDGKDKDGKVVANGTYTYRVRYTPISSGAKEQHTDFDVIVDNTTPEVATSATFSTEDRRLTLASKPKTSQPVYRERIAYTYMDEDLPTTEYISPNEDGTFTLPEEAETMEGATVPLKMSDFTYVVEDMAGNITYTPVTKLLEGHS

ScpA_(S512A,E864A) = molecular target: T2, ScpA_(S512A,E864A) (Streptococcus pyogenes, UniProt P15926 31-1032, S512A | E864A); test: as above; conditions: both partners purified
T2 construct: Made by QuikChange II from pGEX ScpA(31-1032); also called E864A_(S512A); source: details in Supplemental Information SI1 and SI2
T2 sequence (looked up): T1 sequence (looked up) with E834A

B1: Recombinant human C5a (rhC5a) (natural protein, UniProt P01031 678-751, looked up)
chain: TLQKKIEEIAAKYKHSVVKKCCYDGACVNNDETCEQRAARISLGPRCIKAFTECCVVASQLRANISHKDMQLGR
notes: human complement C5a anaphylatoxin, residues 1-74 (core 1-67 and tail 68-74); also called full length rhC5a; substrate; not shown: His6, N-terminal, kept
- Kd (ScpA_(S512A)): 34 nM
- koff (ScpA_(S512A)): 0.007 s⁻¹
- kon (ScpA_(S512A)): 209000 M⁻¹ s⁻¹
- Kd (ScpA_(S512A,E864A)): 25 nM
- koff (ScpA_(S512A,E864A)): 0.0064 s⁻¹
- kon (ScpA_(S512A,E864A)): 260000 M⁻¹ s⁻¹
